From patent publication US20250197491A1 (MACOMICS, published 2025)

What was measured:
Test in all cases: multi-point ELISA, antigen coated, apparent EC50
[1] = target: LILRA6 recombinant, full-length ectodomain (LILRA6 24-447) (human, UniProt Q6PI73 24-447)
Protocol: (§1) FIG. 32. Binding of Clones 1-5 to selected LILR family members tested by multiple point ELISA. Recombinant LILRB1, LILRB2, LILRB3, LILRA1, LILRA3, LILRA4, and LILRA6, or irrelevant control protein were coated on the ELISA plates. The plates were then blocked with milk in PBST. Next, the plates were incubated with serial dilutions (12.5 nM to 0.02 nM) of Clones 1-5 (A-E). Bound antibodies were detected using HRP-conjugated anti-human Fc antibodies and the chromogenic substrate.
as §1, with “Binding of” for “FIG. 32. Binding of”, “point ELISA. (FIG. 32) Recombinant LILRB1,” for “point ELISA. Recombinant LILRB1,”, “LILRA3, LILRA4, LILRA6, or” for “LILRA3, LILRA4, and LILRA6, or”, “nM) of Clone 1-5 (A-E).” for “nM) of Clones 1-5 (A-E).”

[2] = target: LILRB3 recombinant, full-length ectodomain (LILRB3 24-443) (human, UniProt O75022 24-443)
Sequence of LILRB3 recombinant, full-length ectodomain (LILRB3 24-443) (O75022 24-443): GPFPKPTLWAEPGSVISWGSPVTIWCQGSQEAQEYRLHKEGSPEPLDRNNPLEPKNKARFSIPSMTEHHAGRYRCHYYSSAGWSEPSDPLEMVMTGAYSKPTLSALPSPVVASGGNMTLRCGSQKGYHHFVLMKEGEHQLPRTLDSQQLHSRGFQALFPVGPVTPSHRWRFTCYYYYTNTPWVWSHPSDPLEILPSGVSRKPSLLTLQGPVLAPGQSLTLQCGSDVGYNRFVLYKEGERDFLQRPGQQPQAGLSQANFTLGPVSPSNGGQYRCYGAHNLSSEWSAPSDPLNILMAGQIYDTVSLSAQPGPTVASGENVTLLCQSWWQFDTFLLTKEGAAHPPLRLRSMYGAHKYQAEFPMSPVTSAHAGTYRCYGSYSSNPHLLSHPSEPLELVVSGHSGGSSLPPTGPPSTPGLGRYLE
Protocol: as §1
as §1, with “Binding of” for “FIG. 32. Binding of”, “point ELISA. (FIG. 32) Recombinant LILRB1,” for “point ELISA. Recombinant LILRB1,”, “LILRA3, LILRA4, LILRA6, or” for “LILRA3, LILRA4, and LILRA6, or”, “nM) of Clone 1-5 (A-E).” for “nM) of Clones 1-5 (A-E).”

[3] = target: LILRB2 recombinant, full-length ectodomain (LILRB2 22-458) (human, UniProt Q8N423 22-458)
Sequence of LILRB2 recombinant, full-length ectodomain (LILRB2 22-458) (Q8N423 22-458): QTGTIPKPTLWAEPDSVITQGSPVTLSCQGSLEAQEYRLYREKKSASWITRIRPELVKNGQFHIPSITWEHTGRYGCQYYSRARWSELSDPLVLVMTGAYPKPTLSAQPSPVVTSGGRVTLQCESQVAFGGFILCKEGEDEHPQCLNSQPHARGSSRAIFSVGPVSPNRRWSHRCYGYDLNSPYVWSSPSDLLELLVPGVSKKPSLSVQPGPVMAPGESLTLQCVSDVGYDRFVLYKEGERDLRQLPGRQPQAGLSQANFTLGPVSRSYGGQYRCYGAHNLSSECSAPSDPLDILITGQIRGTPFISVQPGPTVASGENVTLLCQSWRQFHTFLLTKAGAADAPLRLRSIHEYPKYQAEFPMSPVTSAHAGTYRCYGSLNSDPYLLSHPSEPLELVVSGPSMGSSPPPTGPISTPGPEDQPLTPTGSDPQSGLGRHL
Protocol: as §1
as §1, with “Binding of” for “FIG. 32. Binding of”, “point ELISA. (FIG. 32) Recombinant LILRB1,” for “point ELISA. Recombinant LILRB1,”, “LILRA3, LILRA4, LILRA6, or” for “LILRA3, LILRA4, and LILRA6, or”, “nM) of Clone 1-5 (A-E).” for “nM) of Clones 1-5 (A-E).”

[4] = target: LILRA4 recombinant, full-length ectodomain (LILRA4 24-446) (human, UniProt P59901 24-446)
Sequence of LILRA4 recombinant, full-length ectodomain (LILRA4 24-446) (P59901 24-446): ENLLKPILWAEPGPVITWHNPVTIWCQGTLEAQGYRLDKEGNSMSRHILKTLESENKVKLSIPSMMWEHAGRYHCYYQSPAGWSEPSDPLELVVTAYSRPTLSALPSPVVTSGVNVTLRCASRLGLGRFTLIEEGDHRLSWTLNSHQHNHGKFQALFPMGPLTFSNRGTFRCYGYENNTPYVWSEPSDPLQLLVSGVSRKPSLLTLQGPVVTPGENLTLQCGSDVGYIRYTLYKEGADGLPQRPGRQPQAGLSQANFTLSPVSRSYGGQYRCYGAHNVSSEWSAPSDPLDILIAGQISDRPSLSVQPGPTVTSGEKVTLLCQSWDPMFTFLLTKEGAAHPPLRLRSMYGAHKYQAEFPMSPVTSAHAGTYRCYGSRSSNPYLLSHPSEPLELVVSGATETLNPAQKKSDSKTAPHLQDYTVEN
Protocol: as §1
as §1, with “Binding of” for “FIG. 32. Binding of”, “point ELISA. (FIG. 32) Recombinant LILRB1,” for “point ELISA. Recombinant LILRB1,”, “LILRA3, LILRA4, LILRA6, or” for “LILRA3, LILRA4, and LILRA6, or”, “nM) of Clone 1-5 (A-E).” for “nM) of Clones 1-5 (A-E).”

[5] = target: LILRB1 recombinant, full-length ectodomain (human, UniProt Q8NHL6 24-461)
Sequence of LILRB1 recombinant, full-length ectodomain (Q8NHL6 24-461 limits assumed): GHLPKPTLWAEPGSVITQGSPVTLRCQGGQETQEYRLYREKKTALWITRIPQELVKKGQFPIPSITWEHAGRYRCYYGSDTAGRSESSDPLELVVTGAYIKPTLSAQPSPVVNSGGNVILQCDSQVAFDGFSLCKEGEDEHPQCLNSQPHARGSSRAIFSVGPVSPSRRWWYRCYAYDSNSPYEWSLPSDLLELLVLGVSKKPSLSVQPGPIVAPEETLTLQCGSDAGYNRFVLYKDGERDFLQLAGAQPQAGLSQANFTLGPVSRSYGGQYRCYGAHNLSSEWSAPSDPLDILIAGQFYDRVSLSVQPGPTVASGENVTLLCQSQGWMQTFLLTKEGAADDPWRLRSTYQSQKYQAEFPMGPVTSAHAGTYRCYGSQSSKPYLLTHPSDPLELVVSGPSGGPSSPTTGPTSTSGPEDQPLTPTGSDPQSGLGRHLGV
Protocol: as §1
as §1, with “Binding of” for “FIG. 32. Binding of”, “point ELISA. (FIG. 32) Recombinant LILRB1,” for “point ELISA. Recombinant LILRB1,”, “LILRA3, LILRA4, LILRA6, or” for “LILRA3, LILRA4, and LILRA6, or”, “nM) of Clone 1-5 (A-E).” for “nM) of Clones 1-5 (A-E).”

[6] = target: T1, Human full length LILRA3 (human, UniProt Q8N6C8 24-439)
T1 construct: Commercial recombinant protein; also the parent of the LILRA3 peptide microarrays
T1 sequence (Q8N6C8 24-439 A105V limits assumed): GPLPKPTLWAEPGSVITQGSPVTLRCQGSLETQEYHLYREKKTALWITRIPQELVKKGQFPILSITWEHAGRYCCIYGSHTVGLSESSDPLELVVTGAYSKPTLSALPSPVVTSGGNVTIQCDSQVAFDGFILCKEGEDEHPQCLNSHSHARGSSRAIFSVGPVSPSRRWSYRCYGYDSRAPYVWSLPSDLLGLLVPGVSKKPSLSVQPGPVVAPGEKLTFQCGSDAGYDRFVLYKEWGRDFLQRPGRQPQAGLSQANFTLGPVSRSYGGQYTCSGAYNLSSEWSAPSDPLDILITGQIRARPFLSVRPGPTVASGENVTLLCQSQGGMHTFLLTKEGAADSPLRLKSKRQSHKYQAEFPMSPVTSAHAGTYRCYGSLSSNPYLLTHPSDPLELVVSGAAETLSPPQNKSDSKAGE
Protocol: as §1
as §1, with “Binding of” for “FIG. 32. Binding of”, “point ELISA. (FIG. 32) Recombinant LILRB1,” for “point ELISA. Recombinant LILRB1,”, “LILRA3, LILRA4, LILRA6, or” for “LILRA3, LILRA4, and LILRA6, or”, “nM) of Clone 1-5 (A-E).” for “nM) of Clones 1-5 (A-E).”

[7] = target: T2, Human LILRA1 ectodomain (human, UniProt O75019 17-461)
T2 construct: Recombinant protein from a commercial source
T2 sequence (O75019 17-461): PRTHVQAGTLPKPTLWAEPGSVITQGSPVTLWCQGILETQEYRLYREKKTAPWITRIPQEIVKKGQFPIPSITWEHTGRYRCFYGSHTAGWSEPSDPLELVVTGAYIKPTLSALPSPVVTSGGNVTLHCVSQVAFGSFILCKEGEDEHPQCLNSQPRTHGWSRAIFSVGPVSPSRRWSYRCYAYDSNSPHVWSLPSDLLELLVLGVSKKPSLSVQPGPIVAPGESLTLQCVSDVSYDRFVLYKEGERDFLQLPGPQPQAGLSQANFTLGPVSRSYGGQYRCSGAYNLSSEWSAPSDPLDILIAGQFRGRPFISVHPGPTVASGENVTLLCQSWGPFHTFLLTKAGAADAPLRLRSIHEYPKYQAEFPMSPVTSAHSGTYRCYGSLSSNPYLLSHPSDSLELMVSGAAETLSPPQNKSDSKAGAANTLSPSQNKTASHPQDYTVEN
Protocol: as §1
as §1, with “Binding of” for “FIG. 32. Binding of”, “point ELISA. (FIG. 32) Recombinant LILRB1,” for “point ELISA. Recombinant LILRB1,”, “LILRA3, LILRA4, LILRA6, or” for “LILRA3, LILRA4, and LILRA6, or”, “nM) of Clone 1-5 (A-E).” for “nM) of Clones 1-5 (A-E).”

Sequence of LILRA6 recombinant, full-length ectodomain (LILRA6 24-447) (Q6PI73 24-447): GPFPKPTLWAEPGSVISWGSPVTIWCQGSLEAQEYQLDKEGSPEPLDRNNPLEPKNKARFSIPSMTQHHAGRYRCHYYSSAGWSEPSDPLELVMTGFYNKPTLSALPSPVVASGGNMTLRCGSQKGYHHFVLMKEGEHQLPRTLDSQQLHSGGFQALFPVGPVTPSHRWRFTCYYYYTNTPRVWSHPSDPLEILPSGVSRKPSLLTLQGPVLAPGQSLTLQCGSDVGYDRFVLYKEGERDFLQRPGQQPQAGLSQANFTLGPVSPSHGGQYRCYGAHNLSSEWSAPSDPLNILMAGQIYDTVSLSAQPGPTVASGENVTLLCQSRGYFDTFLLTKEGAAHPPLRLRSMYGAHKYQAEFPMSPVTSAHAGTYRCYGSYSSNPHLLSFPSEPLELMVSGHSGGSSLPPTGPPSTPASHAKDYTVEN

EC50 [1] [nM] | EC50 [2] [nM] | EC50 [3] [nM] | EC50 [4] [nM] | EC50 [5] [nM] | EC50 [6] [nM] | EC50 [7] [nM] | Binder
1.81 | 2 | 0.73 | 0.81 | 0.55 | 0.97 | 2.38 | Antibody 1 (antibody, V domains shown, Fully human antibody expressed in CHO; also called Clone 1; Antibody Clone 1) VH: QVQLVESGGGLVKPGGSLRLSCAASGFTFSDYYMSWIRQAPGKGLEWVSYISSSGSIKKYADSVKGRFTISRDNAKNSLYLQMNSLRGEDTAVYYCARTNWHFDYWGQGTLVTVSS VL: EIVLTQSPGTLSLSPGERATLSCRASQSVSSSYLAWYQQKPGQAPRLLIFGASTRATGIPDRFSGSGSGTDFTLTISRLEPEDVAVYYCQQYYSTPFTFGPGTKVDIK
0.97 | 0.99 | 1.04 | 0.84 | 0.99 | 1.26 | 9.07 | Antibody 5 (antibody, V domains shown, Fully human antibody; IgG4; also called Clone 5; Antibody Clone 5) VH: QVQLVESGGGLVKPGGSLRLSCAASGFTFSDYYMTWIRQAPGKGLEWVSYISISGITRYYADSVKGRFTISRDNAKNSLYLQMNSLRAEDTAVYYCARDQTGYFDYWGQGTLVTVSS VL: DIVMTQSPATLSVSPGEKTTLSCRASQSFSSNLAWYQQKPGQAPRLLIYGASTRATGIPARFSGSGSGTEFTLTISSLQSEDFAVYYCQQYINWPHTFGQGTKVEIK
1.69 | 1.75 | 1.28 | 1.15 | 1.38 | 1.2 | 1.76 | Antibody 3 (antibody, V domains shown, Fully human antibody; IgG4; also called Clone 3; Antibody Clone 3) VH: QVQLVQSGAEVKKPGASVKVSCKASGYTFTSYGISWVRQAPGQGLEWMGWISAYNGNTNYAQKLQGRVTMTTDTSTSTAYMELRSLRSDDTAVYYCARSYSGSHWWFDPWGQGTLVTVSS VL: not shown
2.2 | 1.38 | 1.39 | 1.38 | 1.24 | 1.42 | 4.1 | Antibody 4 (antibody, V domains shown, Fully human antibody; IgG4; also called Clone 4; Antibody Clone 4) VH: QVQLVQSGAEVKKPGASVKVSCKASGYTFTSYGISWVRQAPGQGLEWMGWISAYNGNTNYAQKLQGRVTMTTDTSTSTAYMELRSLRSDDTAVYYCARSYSGSYWWFDPWGQGTLVTVSS VL: not shown
